# Results from article PMC7641913.
# Target: T1, His-Fur (Vibrio cholerae C7258 (El Tor; Peru, 1991)) (UniProt P0C6C8)
# T1 sequence: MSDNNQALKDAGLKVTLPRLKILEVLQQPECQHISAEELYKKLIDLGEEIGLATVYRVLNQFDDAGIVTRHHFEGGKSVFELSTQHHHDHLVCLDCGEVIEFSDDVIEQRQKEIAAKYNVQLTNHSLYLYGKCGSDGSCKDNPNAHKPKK
# Assay: EMSA
# Conditions: 10 mM Tris-HCl pH 7.5, 50 mM KCl, 1 mM MgCl2, 100 uM MnCl (so in the source), 0.5 mM DTT, 0.05 mg/ml BSA, 10 mg/ml salmon sperm DNA; room temperature, 20 min (EMSA …)
sequence,measurement,value
CACTTCTTCGCCTTCTTTGATTGCGCCAGTACGGCGAATATCCAAACGAACAGAAGCGTAGAATTTCAGTGCGTTACCGCCAGTGGTGGTTTCTGGGTTACCAAACATCACACCAATCTT (double strand) [recA fragment (negative control)],binding,no binding
